B1: HFKFmut (antibody, human IgG1, V domains shown)
VH: EVQLVESGGGLVQPGGSLRLSCAASGFSLTIYGAHWVRQAPGKGLEWVSVIWAGGSTNYNSALMSRLTISKDNSKNTVYLQMNSLRAEDTAVYYCARDGSSPYYYSMEYWGQGTTVTVSS
VL: EIVLTQSPATLSLSPGERATLSCSATSSVSYMHWFQQKPGQAPRLLIYSTSNLASGIPARFSGSGSGTDYTLTISSLEPEDFAVYYCQQRSSYPYTFGPGTKLDIK
notes: human IgG1/kappa
B2: RHE Triple-KE (antibody, human IgG1, V domains shown)
VH: B1 VH with S49G, L67F, S106G, E108D, Y109V
VL: B1 VL with I57V, Y70F, Y95F
notes: human IgG1/kappa
B3: RHE E-DKFmut (antibody, human IgG1, V domains shown)
VH: B1 VH with S49G, L67F, E108D
VL: B1 VL
notes: human IgG1/kappa
B4: HGKE (antibody, human IgG1, V domains shown)
VH: B1 VH with L67F, T68S
VL: B1 VL with I57V, Y70F, Y95F
notes: human IgG1/kappa
B5: RHE S-GKC (antibody, human IgG1, V domains shown)
VH: B1 VH with S49G, L67F, S106G
VL: B1 VL with V3I, Y70F, Y95F
notes: human IgG1/kappa
B6: RHE S-G KFmut (antibody, V domains shown)
VH: B1 VH with S49G, L67F, S106G
VL: B1 VL
notes: human IgG1/kappa
B7: RHE Y-VKB (antibody, human IgG1, V domains shown)
VH: B1 VH with S49G, L67F, Y109V
VL: B1 VL with V3I, L46W, I57V, Y95F
notes: human IgG1/kappa
B8: RHE S-GKD (antibody, human IgG1, V domains shown)
VH: B1 VH with S49G, L67F, S106G
VL: B1 VL with L46W, Y70F, Y95F
notes: human IgG1/kappa
B9: RHE S-GKA (antibody, human IgG1, V domains shown)
VH: B1 VH with S49G, L67F, S106G
VL: B1 VL with Y70F, Y95F
notes: human IgG1/kappa
B10: RHE E-DKA (antibody, human IgG1, V domains shown)
VH: B1 VH with S49G, L67F, E108D
VL: B1 VL with Y70F, Y95F
notes: human IgG1/kappa
B11: RHE S-GKB (antibody, human IgG1, V domains shown)
VH: B1 VH with S49G, L67F, S106G
VL: B1 VL with V3I, L46W, I57V, Y95F
notes: human IgG1/kappa
B12: RHE E-DKB (antibody, human IgG1, V domains shown)
VH: B1 VH with S49G, L67F, E108D
VL: B1 VL with V3I, L46W, I57V, Y95F
notes: human IgG1/kappa
B13: RHE Y-VKA (antibody, human IgG1, V domains shown)
VH: B1 VH with S49G, L67F, Y109V
VL: B1 VL with Y70F, Y95F
notes: human IgG1/kappa
B14: RHE E-DKC (antibody, human IgG1, V domains shown)
VH: B1 VH with S49G, L67F, E108D
VL: B1 VL with V3I, Y70F, Y95F
notes: human IgG1/kappa
B15: RHE S-GKG (antibody, human IgG1, V domains shown)
VH: B1 VH with S49G, L67F, S106G
VL: B1 VL with F35Y, Y70F, Y95F
notes: human IgG1/kappa
B16: HGKB (antibody, human IgG1, V domains shown)
VH: B1 VH with L67F, T68S
VL: B1 VL with V3I, L46W, I57V, Y95F
notes: human IgG1/kappa
B17: HGKA (antibody, human IgG1, V domains shown)
VH: B1 VH with L67F, T68S
VL: B1 VL with Y70F, Y95F
notes: human IgG1/kappa
B18: RHE Triple-KA (antibody, human IgG1, V domains shown)
VH: B1 VH with S49G, L67F, S106G, E108D, Y109V
VL: B1 VL with Y70F, Y95F
notes: human IgG1/kappa
B19: RHE Y-VKC (antibody, human IgG1, V domains shown)
VH: B1 VH with S49G, L67F, Y109V
VL: B1 VL with V3I, Y70F, Y95F
notes: human IgG1/kappa
B20: RHE Y-VKE (antibody, human IgG1, V domains shown)
VH: B1 VH with S49G, L67F, Y109V
VL: B1 VL with I57V, Y70F, Y95F
notes: human IgG1/kappa
B21: HGKC (antibody, human IgG1, V domains shown)
VH: B1 VH with L67F, T68S
VL: B1 VL with V3I, Y70F, Y95F
notes: human IgG1/kappa
B22: HGKG (antibody, human IgG1, V domains shown)
VH: B1 VH with L67F, T68S
VL: B1 VL with F35Y, Y70F, Y95F
notes: human IgG1/kappa; also called HGHG
B23: RHE Y-VKD (antibody, human IgG1, V domains shown)
VH: B1 VH with S49G, L67F, Y109V
VL: B1 VL with L46W, Y70F, Y95F
notes: human IgG1/kappa
B24: RHE S-GKF (antibody, human IgG1, V domains shown)
VH: B1 VH with S49G, L67F, S106G
VL: B1 VL with Y95F
notes: human IgG1/kappa
B25: HGKF (antibody, human IgG1, V domains shown)
VH: B1 VH with L67F, T68S
VL: B1 VL with Y95F
notes: human IgG1/kappa
B26: HGKFmut (antibody, human IgG1, V domains shown)
VH: B1 VH with L67F, T68S
VL: B1 VL
notes: human IgG1/kappa
B27: HFKG (antibody, human IgG1, V domains shown)
VH: B1 VH
VL: B1 VL with F35Y, Y70F, Y95F
notes: human IgG1/kappa
B28: RHE E-DKF (antibody, human IgG1, V domains shown)
VH: B1 VH with S49G, L67F, E108D
VL: B1 VL with Y95F
notes: human IgG1/kappa
B29: RHE E-DKE (antibody, human IgG1, V domains shown)
VH: B1 VH with S49G, L67F, E108D
VL: B1 VL with I57V, Y70F, Y95F
notes: human IgG1/kappa
B30: RHE Triple-KD (antibody, human IgG1, V domains shown)
VH: B1 VH with S49G, L67F, S106G, E108D, Y109V
VL: B1 VL with L46W, Y70F, Y95F
notes: human IgG1/kappa
B31: RHE E-DKD (antibody, human IgG1, V domains shown)
VH: B1 VH with S49G, L67F, E108D
VL: B1 VL with L46W, Y70F, Y95F
notes: human IgG1/kappa
B32: HGKD (antibody, human IgG1, V domains shown)
VH: B1 VH with L67F, T68S
VL: B1 VL with L46W, Y70F, Y95F
notes: human IgG1/kappa

Data on 32 molecules can be found in patent US20200054723A1 (ALLAKOS, published 2020).

Substitutions are numbered along the chain they refer to.

The target in this assay is T1, recombinant human Siglec-8 extracellular domain (ECD) (human, UniProt Q9NYZ4 17-363).
T1 construct: extracellular domain; also called Siglec-8 ECD; full Siglec-8 ECD
T1 sequence (Q9NYZ4 17-363): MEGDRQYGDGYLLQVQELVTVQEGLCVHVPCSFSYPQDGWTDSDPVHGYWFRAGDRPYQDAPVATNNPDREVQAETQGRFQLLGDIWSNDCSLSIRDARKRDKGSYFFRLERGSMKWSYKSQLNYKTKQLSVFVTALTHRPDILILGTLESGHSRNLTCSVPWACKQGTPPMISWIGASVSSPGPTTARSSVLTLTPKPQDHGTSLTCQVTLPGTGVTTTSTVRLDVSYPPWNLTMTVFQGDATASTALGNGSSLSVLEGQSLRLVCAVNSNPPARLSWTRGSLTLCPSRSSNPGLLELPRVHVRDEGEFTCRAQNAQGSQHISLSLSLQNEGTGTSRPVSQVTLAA
The assay is described as follows: ELISA, coated Siglec-8 ECD. The protocol: Binding of recombinant human Siglec-8 extracellular domain (ECD) by chimeric 2E2 and chimeric 2C4 IgG1K antibodies was measured by ELISA. […] Three-fold serial dilutions of a chimeric antibody (ch2E2 or ch2C4) or mouse antibody (m2E2 or m2C4) in 0.2% BSA/TBS (starting concentration was 5000 ng/mL) was added to each coated well. The plate was incubated for 2 hours at room temperature and the wells were subsequently washed before addition of goat-anti-human Fc peroxidase conjugate (1:10000 dilution) or anti-mouse Fc peroxidase conjugate (1:30000 dilution) diluted in 0.2% BSA/TBS solution. The plate was incubated for 45 minutes at room temperature, followed by washing and addition of 30 μL K-blue HRP substrate (SkyBio Ltd) to each well. After incubation at room temperature for 15 minutes, the reaction was stopped by adding 10 μL of Red Stop solution (SkyBio Ltd) to each well. The optical density or the experimental samples was read at 650 nm using the ELISA reader PHERAStar FS (BMG Labtech).
The fully humanized antibody heavy and light chains were combined and compared with the chimeric antibody to determine if replacing the 4 Å and canonical framework residues and interface residues was sufficient to successfully humanize 2E2. Expi293 cells were co-transfected with combinations of different humanized light chain vectors in association with different humanized heavy chain vectors. Siglec-8 antigen was used to measure antibody binding by ELISA as described in Example 1.
A general note: An ELISA detects its analyte on a solid surface through an enzyme-linked reagent.
Regarding B1, the EC50 (as a rule, the concentration giving half of the maximal effect) was determined as 57 pM. As to B2, the EC50 stood at 34100 pM. Next, B3: 1400 pM.

For the molecule B4, the EC50 was 116 pM. Next, B5: 173000 pM. On to B6, for which the EC50 worked out at 207000 pM.

For B7, the EC50 came out at 306 pM. For B8, the EC50 turned out to be 8650 pM. In the case of B9 it was 50600 pM; in that of B10, 388 pM; in that of B11, 627000 pM.

In the case of B12, the EC50 was found to be 289 pM. In the case of B13 it was 88 pM; in that of B14, 516 pM; in that of B15, 33500 pM.

In the case of B16, the EC50 amounted to 134 pM.

For B17, the EC50 was found to be 61 pM.

With B18, the EC50 turned out to be 18600 pM. B19: the EC50 was determined as 215 pM.

Consider B20, for which the EC50 is 70 pM.

Turning to B21, the EC50 is 65 pM. For the molecule B22, the EC50 amounted to 254 pM. For B23, the EC50 worked out at 283 pM.

B24: the EC50 came out at 3280 pM. Take B25: the EC50 was 88 pM. Next, B26: 62 pM.

On to B27, for which the EC50 is 355 pM. As to B28, the EC50 came to 445 pM.

On to B29, for which the EC50 came to 364 pM. B30: the EC50 came out at 13200 pM.

With B31, the EC50 was 316 pM. Regarding B32, the 50% effective concentration (EC50) is 47 pM.
